Assay results published in patent US20120238493A1 (INDIANA UNIVERSITY RESEARCH AND TECHNOLOGY, published 2012).
Like-named read-outs stand apart in the source and are kept apart here. *1 amine or outer side, *2 acyl side, *3 side chain or, on linkers, in order; H or OH if unused. Where no end group is shown, it is not given here. Side-chain parts run from the residue outwards. [ ]: non-standard residue; d: D form. The star is where a group is joined. γGlu = O=C(O)[C@H](CCC(=O)[*:2])N[*:1]; Palmitoyl = CCCCCCCCCCCCCCCC(=O)*; Aib = CC(C)(N)C(=O)O

How the values were obtained:
Assay in all cases: cell-based or functional assay
GIP receptor [1] = molecular target: T1, GIP receptor (UniProt P48546 22-466, limits assumed)
T1 sequence (looked up): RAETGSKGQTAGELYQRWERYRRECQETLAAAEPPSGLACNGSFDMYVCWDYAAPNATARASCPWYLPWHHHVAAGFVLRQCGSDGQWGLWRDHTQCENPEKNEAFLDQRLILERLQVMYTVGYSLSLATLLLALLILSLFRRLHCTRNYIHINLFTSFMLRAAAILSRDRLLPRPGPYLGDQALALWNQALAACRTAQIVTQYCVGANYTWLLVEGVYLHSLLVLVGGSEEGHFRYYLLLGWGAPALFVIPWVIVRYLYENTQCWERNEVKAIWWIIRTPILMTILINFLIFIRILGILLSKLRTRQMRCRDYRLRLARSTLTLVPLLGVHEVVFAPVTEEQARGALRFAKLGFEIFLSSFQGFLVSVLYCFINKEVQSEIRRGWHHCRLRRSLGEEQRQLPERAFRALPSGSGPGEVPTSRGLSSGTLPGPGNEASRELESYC

GIP receptor [2] = molecular target: T1, GIP receptor; remark: listed apart in the source
GLP-1 receptor [3] = molecular target: T2, GLP-1 receptor (UniProt P43220 24-463, limits assumed)
GIP receptor [4] = molecular target: T1, GIP receptor; remark: listed apart in the source
glucagon receptor [5] = molecular target: T3, glucagon receptor (UniProt P47871 26-477, limits assumed)
T3 sequence (P47871 26-477 limits assumed): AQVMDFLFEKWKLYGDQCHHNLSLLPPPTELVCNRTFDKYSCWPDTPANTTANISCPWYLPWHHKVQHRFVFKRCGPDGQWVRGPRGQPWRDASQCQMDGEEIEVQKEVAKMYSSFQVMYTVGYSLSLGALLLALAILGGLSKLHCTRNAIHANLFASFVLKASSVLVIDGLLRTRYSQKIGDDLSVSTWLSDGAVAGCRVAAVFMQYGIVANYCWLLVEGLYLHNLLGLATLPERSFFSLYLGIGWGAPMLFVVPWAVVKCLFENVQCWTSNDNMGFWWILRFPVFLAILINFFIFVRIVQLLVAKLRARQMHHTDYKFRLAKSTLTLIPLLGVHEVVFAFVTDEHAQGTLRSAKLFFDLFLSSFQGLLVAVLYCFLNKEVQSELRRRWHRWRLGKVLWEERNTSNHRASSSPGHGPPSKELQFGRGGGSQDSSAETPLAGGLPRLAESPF

GLP-1 receptor [6] = molecular target: T2, GLP-1 receptor; remark: listed apart in the source
GIP receptor [7] = molecular target: T1, GIP receptor; remark: listed apart in the source
glucagon receptor [8] = molecular target: T3, glucagon receptor; remark: listed apart in the source
GLP-1 receptor [9] = molecular target: T2, GLP-1 receptor; remark: listed apart in the source
GIP receptor [10] = molecular target: T1, GIP receptor; remark: listed apart in the source
glucagon receptor [11] = molecular target: T3, glucagon receptor; remark: listed apart in the source
GLP-1 receptor [12] = molecular target: T2, GLP-1 receptor; remark: listed apart in the source
GIP receptor [13] = molecular target: T1, GIP receptor; remark: listed apart in the source
glucagon receptor [14] = molecular target: T3, glucagon receptor; remark: listed apart in the source
GLP-1 receptor [15] = molecular target: T2, GLP-1 receptor; remark: listed apart in the source
Target sequence in this assay (P43220 24-463 limits assumed): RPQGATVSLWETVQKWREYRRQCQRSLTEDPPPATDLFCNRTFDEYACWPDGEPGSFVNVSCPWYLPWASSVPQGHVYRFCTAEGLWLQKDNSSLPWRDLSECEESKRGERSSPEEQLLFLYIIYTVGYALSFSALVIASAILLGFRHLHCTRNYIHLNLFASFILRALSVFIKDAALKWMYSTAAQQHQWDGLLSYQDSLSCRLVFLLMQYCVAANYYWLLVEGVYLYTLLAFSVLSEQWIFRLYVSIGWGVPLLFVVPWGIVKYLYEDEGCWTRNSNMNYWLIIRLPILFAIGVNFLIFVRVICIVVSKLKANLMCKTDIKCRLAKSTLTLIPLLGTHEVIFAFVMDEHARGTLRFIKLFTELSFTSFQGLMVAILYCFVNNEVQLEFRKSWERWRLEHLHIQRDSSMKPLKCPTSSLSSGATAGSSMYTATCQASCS

GIP receptor [16] = molecular target: T1, GIP receptor; remark: listed apart in the source
glucagon receptor [17] = molecular target: T3, glucagon receptor; remark: listed apart in the source
GLP-1 receptor [18] = molecular target: T2, GLP-1 receptor; remark: listed apart in the source
GIP receptor [19] = molecular target: T1, GIP receptor; remark: listed apart in the source
glucagon receptor [20] = molecular target: T3, glucagon receptor; remark: listed apart in the source
GLP-1 receptor [21] = molecular target: T2, GLP-1 receptor; remark: listed apart in the source
GIP receptor [22] = molecular target: T1, GIP receptor; remark: listed apart in the source
glucagon receptor [23] = molecular target: T3, glucagon receptor; remark: listed apart in the source
GLP-1 receptor [24] = molecular target: T2, GLP-1 receptor; remark: listed apart in the source
GIP receptor [25] = molecular target: T1, GIP receptor; remark: listed apart in the source
glucagon receptor [26] = molecular target: T3, glucagon receptor; remark: listed apart in the source

## Native GIP (SEQ ID NO: 2) (from UniProt P09681 52-93) (ligand)
GIP receptor [1]
  EC50 (cAMP reporter): 10 pM
GIP receptor [2]
  EC50 (cAMP reporter): 6.5 pM

## H[Aib]EGTFTSDYSKYLDERAAQDFVQWLLDGGPSSGAPPPSK([γGlu-γGlu-Palmitoyl])G-NH2 [peptide of SEQ ID NO: 171]
GLP-1 receptor [3]
  EC50 (cAMP reporter): 5 pM
GIP receptor [4]
  EC50 (cAMP reporter): 38 pM
Glucagon receptor [5]
  EC50 (cAMP reporter): 455 pM

B1: Analog No. 63: Aib2, E3, K10acyl, E16, L27, D28, G29 + CEX (SEQ ID NO: 39) (peptide)
peptide: H[Aib]EGTFTSDK([γGlu-Palmitoyl])SKYLDERAAQDFVQWLLDGGPSSGAPPPS-NH2
modifications: N-terminus assumed
SMILES: CCCCCCCCCCCCCCCC(=O)N[C@@H](CCC(=O)NCCCC[C@H](NC(=O)[C@H](CC(=O)O)NC(=O)[C@H](CO)NC(=O)[C@@H](NC(=O)[C@H](Cc1ccccc1)NC(=O)[C@@H](NC(=O)CNC(=O)[C@H](CCC(=O)O)NC(=O)C(C)(C)NC(=O)[C@@H](N)Cc1c[nH]cn1)[C@@H](C)O)[C@@H](C)O)C(=O)N[C@@H](CO)C(=O)N[C@@H](CCCCN)C(=O)N[C@@H](Cc1ccc(O)cc1)C(=O)N[C@@H](CC(C)C)C(=O)N[C@@H](CC(=O)O)C(=O)N[C@@H](CCC(=O)O)C(=O)N[C@@H](CCCNC(=N)N)C(=O)N[C@@H](C)C(=O)N[C@@H](C)C(=O)N[C@@H](CCC(N)=O)C(=O)N[C@@H](CC(=O)O)C(=O)N[C@@H](Cc1ccccc1)C(=O)N[C@H](C(=O)N[C@@H](CCC(N)=O)C(=O)N[C@@H](Cc1c[nH]c2ccccc12)C(=O)N[C@@H](CC(C)C)C(=O)N[C@@H](CC(C)C)C(=O)N[C@@H](CC(=O)O)C(=O)NCC(=O)NCC(=O)N1CCC[C@H]1C(=O)N[C@@H](CO)C(=O)N[C@@H](CO)C(=O)NCC(=O)N[C@@H](C)C(=O)N1CCC[C@H]1C(=O)N1CCC[C@H]1C(=O)N1CCC[C@H]1C(=O)N[C@@H](CO)C(N)=O)C(C)C)C(=O)O
GLP-1 receptor [6]
  EC50 (cAMP reporter): 8 pM
GIP receptor [7]
  EC50 (cAMP reporter): 26 pM
Glucagon receptor [8]
  EC50 (cAMP reporter): 1280 pM
GLP-1 receptor [9]
  activity (cAMP reporter), column GLP: 0.008
GIP receptor [10]
  activity (cAMP reporter), column GIP: 0.026
Glucagon receptor [11]
  activity (cAMP reporter), column Glu: 1.28

## H[Aib]QGTFTSDYSKYLD[Aib]RRAQDFVQWLMNT-NH2 (not fully specified (residue 12)) [Glucagon Aib2, K12(rErEC16), Aib16, amide (SEQ ID NO: 45)]
GLP-1 receptor [12]
  EC50 (cAMP reporter): 20.5 pM
GIP receptor [13]
  EC50 (cAMP reporter): 651 pM
Glucagon receptor [14]
  EC50 (cAMP reporter): 42.5 pM

## H[Aib]QGTFTSKYSKYLD[Aib]RRAQDFVQWLMNT-NH2 (not fully specified (residue 9)) [Glucagon Aib2, K9(rErEC16), Aib16, amide (SEQ ID NO: 43)]
GLP-1 receptor [12]
  EC50 (cAMP reporter): 232 pM
GIP receptor [13]
  EC50 (cAMP reporter): 15100 pM
Glucagon receptor [14]
  EC50 (cAMP reporter): 1150 pM

B2: Glucagon Aib2, Aib16, amide (SEQ ID NO: 42) (peptide)
peptide: H[Aib]QGTFTSDYSKYLD[Aib]RRAQDFVQWLMNT-NH2
modifications: N-terminus assumed
SMILES: CSCC[C@H](NC(=O)[C@H](CC(C)C)NC(=O)[C@H](Cc1c[nH]c2ccccc12)NC(=O)[C@H](CCC(N)=O)NC(=O)[C@@H](NC(=O)[C@H](Cc1ccccc1)NC(=O)[C@H](CC(=O)O)NC(=O)[C@H](CCC(N)=O)NC(=O)[C@H](C)NC(=O)[C@H](CCCNC(=N)N)NC(=O)[C@H](CCCNC(=N)N)NC(=O)C(C)(C)NC(=O)[C@H](CC(=O)O)NC(=O)[C@H](CC(C)C)NC(=O)[C@H](Cc1ccc(O)cc1)NC(=O)[C@H](CCCCN)NC(=O)[C@H](CO)NC(=O)[C@H](Cc1ccc(O)cc1)NC(=O)[C@H](CC(=O)O)NC(=O)[C@H](CO)NC(=O)[C@@H](NC(=O)[C@H](Cc1ccccc1)NC(=O)[C@@H](NC(=O)CNC(=O)[C@H](CCC(N)=O)NC(=O)C(C)(C)NC(=O)[C@@H](N)Cc1c[nH]cn1)[C@@H](C)O)[C@@H](C)O)C(C)C)C(=O)N[C@@H](CC(N)=O)C(=O)N[C@H](C(N)=O)[C@@H](C)O
GLP-1 receptor [12]
  EC50 (cAMP reporter): 437 pM
GIP receptor [13]
  EC50 (cAMP reporter): 104000 pM
Glucagon receptor [14]
  EC50 (cAMP reporter): 309 pM

B3: peptide of SEQ ID NO: 230 (peptide)
peptide: H[Aib]QGTFTSDYSIYLDEKRAKEFVCWLLAGGPSSGAPPPSK-NH2
modifications: N-terminus assumed
SMILES: CC[C@H](C)[C@H](NC(=O)[C@H](CO)NC(=O)[C@H](Cc1ccc(O)cc1)NC(=O)[C@H](CC(=O)O)NC(=O)[C@H](CO)NC(=O)[C@@H](NC(=O)[C@H](Cc1ccccc1)NC(=O)[C@@H](NC(=O)CNC(=O)[C@H](CCC(N)=O)NC(=O)C(C)(C)NC(=O)[C@@H](N)Cc1c[nH]cn1)[C@@H](C)O)[C@@H](C)O)C(=O)N[C@@H](Cc1ccc(O)cc1)C(=O)N[C@@H](CC(C)C)C(=O)N[C@@H](CC(=O)O)C(=O)N[C@@H](CCC(=O)O)C(=O)N[C@@H](CCCCN)C(=O)N[C@@H](CCCNC(=N)N)C(=O)N[C@@H](C)C(=O)N[C@@H](CCCCN)C(=O)N[C@@H](CCC(=O)O)C(=O)N[C@@H](Cc1ccccc1)C(=O)N[C@H](C(=O)N[C@@H](CS)C(=O)N[C@@H](Cc1c[nH]c2ccccc12)C(=O)N[C@@H](CC(C)C)C(=O)N[C@@H](CC(C)C)C(=O)N[C@@H](C)C(=O)NCC(=O)NCC(=O)N1CCC[C@H]1C(=O)N[C@@H](CO)C(=O)N[C@@H](CO)C(=O)NCC(=O)N[C@@H](C)C(=O)N1CCC[C@H]1C(=O)N1CCC[C@H]1C(=O)N1CCC[C@H]1C(=O)N[C@@H](CO)C(=O)N[C@@H](CCCCN)C(N)=O)C(C)C
GLP-1 receptor [15]
  EC50 (cAMP reporter): 222 pM
GIP receptor [16]
  EC50 (cAMP reporter): 164 pM
Glucagon receptor [17]
  EC50 (cAMP reporter): 1640 pM

## H[Aib]QGTFTSDK([γGlu-Palmitoyl])SKYLDERAAQDFVQWLLDGGPSSGAPPPS-NH2 [Analog No. 30: Aib2, K10acyl, E16, A18, L27, D28, G29 + CEX (SEQ ID NO: 28)]
GLP-1 receptor [6]
  EC50 (cAMP reporter): 2 pM
GIP receptor [7]
  EC50 (cAMP reporter): 3 pM
Glucagon receptor [8]
  EC50 (cAMP reporter): 2 pM
GLP-1 receptor [3]
  EC50 (cAMP reporter): 2 pM
GIP receptor [4]
  EC50 (cAMP reporter): 2 pM
Glucagon receptor [5]
  EC50 (cAMP reporter): 2 pM
GLP-1 receptor [9]
  activity (cAMP reporter), column GLP: 0.002
GIP receptor [10]
  activity (cAMP reporter), column GIP: 0.003
Glucagon receptor [11]
  activity (cAMP reporter), column Glu: 0.002
GLP-1 receptor [18]
  EC50 (cAMP, nmole): 0.003 nmol
GIP receptor [19]
  EC50 (cAMP, nmole): 0.007 nmol
Glucagon receptor [20]
  EC50 (cAMP, nmole): 0.004 nmol
GLP-1 receptor [21]
  EC50 (cAMP reporter): 4 pM
GIP receptor [22]
  EC50 (cAMP reporter): 4 pM
Glucagon receptor [23]
  EC50 (cAMP reporter): 3 pM
GLP-1 receptor [24]
  EC50 (cAMP reporter): 2 pM
GIP receptor [25]
  EC50 (cAMP reporter): 3 pM
Glucagon receptor [26]
  EC50 (cAMP reporter): 2 pM

## H[Aib]QGTFTSDYSKYLDERAAQDFVQWLLDGGPSSGAPPPSK([γGlu-γGlu-Palmitoyl])G-NH2 (not fully specified) [peptide of SEQ ID NO: 89]
GLP-1 receptor [3]
  EC50 (cAMP reporter): 4 pM
GIP receptor [4]
  EC50 (cAMP reporter): 20 pM
Glucagon receptor [5]
  EC50 (cAMP reporter): 4 pM
GLP-1 receptor [21]
  EC50 (cAMP reporter): 5 pM
GIP receptor [22]
  EC50 (cAMP reporter): 28 pM
Glucagon receptor [23]
  EC50 (cAMP reporter): 6 pM
GLP-1 receptor [24]
  EC50 (cAMP reporter): 2.1 pM
GIP receptor [25]
  EC50 (cAMP reporter): 24 pM
Glucagon receptor [26]
  EC50 (cAMP reporter): 4.1 pM
